In patent publication US20110015138A1 (GENUS ONCOLOGY, published 2011):
Ends that are not written are not given here.

What was measured:
[1] = target: T1, STAT3 (in cells / cell lysates) (human, UniProt P40763 2-770); assay: co-immunoprecipitation with anti-STAT3 from ZR-75-1 and MCF-7 cell lysates, immunoblot anti-MUC1-C
T1 construct: Endogenous protein of the cell lines
Description: (§1) FIGS. 9A-D: MUC1-C binds directly to the STAT3 DBD. (FIG. 9A) Lysates from ZR-75-1 (left) and MCF-7 (right) cells were subjected to immunoprecipitation with anti-STAT3 or a control IgG. The precipitates were immunoblotted with the indicated antibodies. (FIG. 9B) Lysates from ZR-75-1 cells were incubated with GST and GST-MUC1-CD bound to glutathione beads. The adsorbates were immunoblotted with anti-STAT3 Input of the GST and GST-MUC1-CD proteins was assessed by Coomassie blue staining. (FIG. 9C) Amino acid sequence of the MUC1 cytoplasmic domain is shown with the indicated phosphorylation and binding sites. GST, GST-MUC1-CD, GST-MUC1-CD (1-45) and GST-MUC1-CD (46-72) bound to glutathione beads were incubated with purified recombinant STAT3. The adsorbates were immunoblotted with anti-STAT3. Input of the GST and GST-MUC1-CD fusion proteins was assessed by Coomassie blue staining. (FIG. 9D) Structure of STAT3. GST, GST-STAT3 (full length; amino acids 1-770), […], […] and […] bound to glutathione beads were incubated with purified MUC1-CD. Adsorbates were immunoblotted with anti-MUC1-C. Input of the GST and GST-STAT3 fusion proteins was assessed by Coomassie blue staining.
(§2) MUC1-C directly interacts with STAT3. […]

[2] = target: T2, NF-κB p65 (in cells / cell lysates) (human, UniProt Q04206 1-551); assay: co-immunoprecipitation with anti-p65 from ZR-75-1, MCF-7 and U-937/MUC1-C cell lysates, immunoblot anti-MUC1-C
T2 construct: Endogenous protein of the cell lines
Description: Immunoprecipitation and immunoblotting. Lysates from sub-confluent cells were prepared as described (Ren et al., 2004). Soluble proteins were precipitated with anti-NF-κB p65 (Santa Cruz Biotechnology, Santa Cruz, Calif.). […] Immune complexes were detected with horseradish peroxidase-conjugated secondary antibodies (GE Healthcare Biosciences, Piscataway, N.J.) and enhanced chemiluminescence (GE Healthcare).
MUC1-C associates with NF-κB p65. To determine whether MUC1 interacts with NF-κB, anti-NF-κB p65 precipitates from ZR-75-1 breast cancer cells were immunoblotted with an antibody against the MUC1-C subunit cytoplasmic domain. […] Similar findings were obtained with lysates from MCF-7 breast cancer cells, which also overexpress endogenous MUC1 (FIG. 1B). To determine whether the MUC1-N subunit is necessary for the association, studies were performed on U-937 cells that stably express exogenous MUC1-C and not MUC1-N (Agata et al., 2008).

[3] = target: T3, purified recombinant NF-κB p65 (UniProt Q04206 1-551, limits assumed); assay: GST pull-down of purified recombinant p65, immunoblot anti-p65
T3 construct: also called purified NF-κB p65

[4] = target: purified recombinant STAT3 (UniProt P40763 1-770, limits assumed); assay: GST pull-down of purified recombinant STAT3, immunoblot anti-STAT3
purified recombinant STAT3, sequence (P40763 whole entry): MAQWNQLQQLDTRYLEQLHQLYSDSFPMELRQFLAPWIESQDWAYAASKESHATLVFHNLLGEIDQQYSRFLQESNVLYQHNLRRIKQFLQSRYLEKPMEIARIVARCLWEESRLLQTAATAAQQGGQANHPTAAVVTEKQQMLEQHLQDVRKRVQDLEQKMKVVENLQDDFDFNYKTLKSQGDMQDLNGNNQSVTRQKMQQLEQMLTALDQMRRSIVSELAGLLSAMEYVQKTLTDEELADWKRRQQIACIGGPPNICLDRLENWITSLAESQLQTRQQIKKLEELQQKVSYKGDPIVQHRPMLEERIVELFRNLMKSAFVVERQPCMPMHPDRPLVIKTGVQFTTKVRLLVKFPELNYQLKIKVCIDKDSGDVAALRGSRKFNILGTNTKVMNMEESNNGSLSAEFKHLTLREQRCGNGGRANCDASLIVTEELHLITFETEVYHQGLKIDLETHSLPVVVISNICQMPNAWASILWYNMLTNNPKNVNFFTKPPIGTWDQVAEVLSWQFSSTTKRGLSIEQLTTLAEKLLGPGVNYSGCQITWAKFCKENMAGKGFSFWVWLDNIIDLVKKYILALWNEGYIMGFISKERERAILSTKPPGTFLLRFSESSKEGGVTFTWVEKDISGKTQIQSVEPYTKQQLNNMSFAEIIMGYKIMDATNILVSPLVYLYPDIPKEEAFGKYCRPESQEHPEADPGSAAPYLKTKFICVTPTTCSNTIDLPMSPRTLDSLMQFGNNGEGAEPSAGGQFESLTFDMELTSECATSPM
Description: as §1, §2

GST-IκBα = target: T4, GST-IκBα (UniProt P25963 1-317); assay: GST pull-down of purified p65(1-180), immunoblot anti-p65
T4 construct: Bought (Millipore, Billerica, Mass.); not shown: glutathione S-transferase (GST) fusion moiety
T4 sequence (looked up): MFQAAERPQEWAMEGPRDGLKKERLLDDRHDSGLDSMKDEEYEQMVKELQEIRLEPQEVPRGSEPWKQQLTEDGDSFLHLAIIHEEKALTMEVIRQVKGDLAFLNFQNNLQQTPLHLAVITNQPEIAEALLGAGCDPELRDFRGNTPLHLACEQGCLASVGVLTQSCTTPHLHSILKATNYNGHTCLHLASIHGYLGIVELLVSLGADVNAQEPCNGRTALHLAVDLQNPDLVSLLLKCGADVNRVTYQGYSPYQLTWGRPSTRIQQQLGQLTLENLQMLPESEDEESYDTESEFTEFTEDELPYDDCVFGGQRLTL

[5] = target: T5, GST-STAT3 (N-terminal; amino acids 1-257) (UniProt P40763 1-257); assay: GST-STAT3 deletion mutants on glutathione beads incubated with purified MUC1-CD, immunoblot anti-MUC1-C
T5 construct: range 1-257; The legend names it GST-MUC1-CD, but the text and the end of the legend speak of STAT3 deletion mutants / GST-STAT3 fusion proteins; also called dimerization domain; printed in the legend as GST-MUC1-CD (N-terminal: amino acids 1-257); not shown: glutathione S-transferase (GST) fusion moiety
T5 sequence (P40763 1-257): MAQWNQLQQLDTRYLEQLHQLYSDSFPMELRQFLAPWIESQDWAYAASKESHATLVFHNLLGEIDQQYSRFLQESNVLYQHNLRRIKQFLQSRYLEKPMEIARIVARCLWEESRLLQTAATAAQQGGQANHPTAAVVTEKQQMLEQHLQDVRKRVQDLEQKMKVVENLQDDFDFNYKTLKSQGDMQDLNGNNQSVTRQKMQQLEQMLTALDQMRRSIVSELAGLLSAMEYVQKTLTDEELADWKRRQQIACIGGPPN
Description: as §1, §2

[6] = target: T6, GST-STAT3 (C-terminal; amino acids 514-770) (UniProt P40763 514-770); assay: as above
T6 construct: range 514-770; The legend names it GST-MUC1-CD, but the text and the end of the legend speak of STAT3 deletion mutants / GST-STAT3 fusion proteins; also called printed in the legend as GST-MUC1-CD (C-terminal); not shown: glutathione S-transferase (GST) fusion moiety
T6 sequence (P40763 514-770): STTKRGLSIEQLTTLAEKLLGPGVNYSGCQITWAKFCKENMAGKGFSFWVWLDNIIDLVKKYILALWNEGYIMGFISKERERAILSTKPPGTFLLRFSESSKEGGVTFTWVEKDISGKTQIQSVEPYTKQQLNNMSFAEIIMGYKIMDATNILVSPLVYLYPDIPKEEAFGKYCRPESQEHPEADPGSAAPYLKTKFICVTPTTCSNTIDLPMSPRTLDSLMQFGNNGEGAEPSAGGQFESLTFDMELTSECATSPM
Description: as §1, §2

T1 sequence (P40763 2-770 limits assumed): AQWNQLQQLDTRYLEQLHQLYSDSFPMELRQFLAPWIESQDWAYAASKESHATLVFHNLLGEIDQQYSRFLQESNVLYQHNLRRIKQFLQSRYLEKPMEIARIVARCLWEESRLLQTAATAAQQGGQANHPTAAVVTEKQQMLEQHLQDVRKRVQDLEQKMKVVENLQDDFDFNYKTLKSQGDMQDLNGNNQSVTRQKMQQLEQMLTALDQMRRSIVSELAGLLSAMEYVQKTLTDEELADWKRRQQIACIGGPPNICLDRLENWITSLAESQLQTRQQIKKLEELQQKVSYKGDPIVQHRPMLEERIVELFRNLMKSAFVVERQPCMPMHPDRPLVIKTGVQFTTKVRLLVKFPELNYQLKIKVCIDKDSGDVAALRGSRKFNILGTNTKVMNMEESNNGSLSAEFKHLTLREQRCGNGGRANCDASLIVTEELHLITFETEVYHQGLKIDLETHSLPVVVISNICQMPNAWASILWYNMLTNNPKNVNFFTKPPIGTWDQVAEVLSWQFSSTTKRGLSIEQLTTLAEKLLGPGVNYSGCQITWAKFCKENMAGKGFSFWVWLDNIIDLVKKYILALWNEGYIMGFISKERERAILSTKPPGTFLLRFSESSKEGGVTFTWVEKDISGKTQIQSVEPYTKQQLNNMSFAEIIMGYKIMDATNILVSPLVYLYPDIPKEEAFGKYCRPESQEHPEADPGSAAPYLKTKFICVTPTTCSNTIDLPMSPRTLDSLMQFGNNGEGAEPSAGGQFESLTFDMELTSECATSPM

B1: MUC1 C-terminal subunit (MUC1-C), in cells (receptor)
chain: SVVVQLTLAFREGTINVHDVETQFNQYKTEAASRYNLTISDVSVSDVPFPFSAQSGAGVPGWGIALLVLVCVLVALAIVYLIALAVCQCRRKNYGQLDIFPARDTYHPMSEYPTYHTHGRYVPPSSTDRSPYEKVSAGNGGSSLSYTNPAVAATSANL
notes: Endogenous MUC1-C in lysates of ZR-75-1, MCF-7 and MCF-10A cells, or exogenous MUC1-C in U-937 cells and exogenous MUC1 in HeLa cells
B1: binds [1]; binds [2].

B2: GST-MUC1-CD(1-45) (other)
chain: CQCRRKNYGQLDIFPARDTYHPMSEYPTYHTHGRYVPPSSTDRSP
modifications: cysteine pairing not given here; also: GST fusion
notes: Deletion mutant of GST-MUC1-CD; residues counted on the 72 amino acid cytoplasmic domain; not shown: glutathione S-transferase (GST) fusion moiety
B2: no binding [3]; no binding [4].

B3: p65(1-180) (other, UniProt Q04206 1-180, looked up)
chain: MDELFPLIFPAEPAQASGPYVEIIEQPKQRGMRFRYKCEGRSAGSIPGERSTDTTKTHPTIKINGYTGPGTVRISLVTKDPPHRPHPHELVGKDCRDGFYEAELCPDRCIHSFQNLGIQCVKKRDLEQAISQRIQTNNNPFQVPIEEQRGDYDLNAVRLCFQVTVRDPSGRPLRLPPVLS
notes: range 1-180; Purified deletion mutant; also called purified p65(1-180)
B3: no binding (GST-IκBα).

B4: MUC1-CD (purified, GST moiety removed with thrombin) (other)
chain: CQCRRKNYGQLDIFPARDTYHPMSEYPTYHTHGRYVPPSSTDRSPYEKVSAGNGGSSLSYTNPAVAATSANL
notes: also called purified MUC1-CD; MUC1-C cytoplasmic domain
B4: no binding [5]; no binding [6].
